# Reference: US20240082183A1, “METHODS FOR PREVENTING OR TREATING CONDITIONS RELATED TO T CELL MEDIATED INTESTINAL DISORDERS” (The Regents of the University of Michigan, priority 2021, published 2024)
# B1: GzmB: recombinant mouse Granzyme B (protein)
# chain: IIGGHEVKPHSRPYMALLSIKDQQPEAICGGFLIREDFVLTAAHCEGSIINVTLGAHNIKEQEKTQQVIPMVKCIPHPDYNPKTFSNDIMLLKLKSKAKRTRAVRPLNLPRRNVNVKPGDVCYVAGWGRMAPMGKYSNTLQEVELTVQKDRECESYFKNRYNKTNQICAGDPKTKRASFRGDSGGPLVCKKVAAGIVSYGYKDGSPPRAFTKVSSFLSWIKKTMKSS
# B2: GDF15: growth and differentiation factor15 that promotes the tissue tolerance (protein, UniProt Q99988 195-308, looked up)
# Growth/differentiation factor …: ARARNGDHCPLGPGRCCRLHTVRASLEDLGWADWVLSPREVQVTMCIGACPSQFRAANMHAQIKTSLHRLKPDTVPAPCCVPASYNPMVLIQKTDTGVSLQTYDDLLAKDCHCI
# Columns and labels:
# [1] = target: T1, mutated SDHA protein (Mus musculus, UniProt Q8K2B3, D241A); test: GzmB treatment of SDHA mutated at the putative cleavage site; assay type: biochemical; conditions: 6 hours
# T1 construct: host or cells: E. coli BL21 Star (DE3)
# T1 sequence (Q8K2B3 43-664 D241A): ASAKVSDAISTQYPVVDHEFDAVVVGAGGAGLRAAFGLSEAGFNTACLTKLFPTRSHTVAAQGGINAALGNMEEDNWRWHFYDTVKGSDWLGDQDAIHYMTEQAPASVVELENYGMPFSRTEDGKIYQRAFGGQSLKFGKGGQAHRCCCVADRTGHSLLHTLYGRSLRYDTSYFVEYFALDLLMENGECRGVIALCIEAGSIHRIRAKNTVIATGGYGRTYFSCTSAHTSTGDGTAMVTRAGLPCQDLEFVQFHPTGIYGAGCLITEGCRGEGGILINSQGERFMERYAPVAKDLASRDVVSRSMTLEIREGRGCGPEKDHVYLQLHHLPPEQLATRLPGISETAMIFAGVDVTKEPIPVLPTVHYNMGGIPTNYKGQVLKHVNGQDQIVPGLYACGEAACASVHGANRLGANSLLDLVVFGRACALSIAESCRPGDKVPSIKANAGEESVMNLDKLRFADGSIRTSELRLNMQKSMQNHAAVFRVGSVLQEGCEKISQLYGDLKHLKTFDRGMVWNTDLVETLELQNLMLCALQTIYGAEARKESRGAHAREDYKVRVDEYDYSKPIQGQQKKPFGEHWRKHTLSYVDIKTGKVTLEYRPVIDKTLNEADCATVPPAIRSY
# Description: Generation of normal SDHA protein and mutated SDHA protein: Target DNA sequence of mouse normal SDHA and mutated SDHA was optimized and synthesized (GenScript). The synthesized sequence was cloned into vector pET-30a(+) with His tag for protein expression in E. coli. E. coli strain BL21 Star™(DE3) was transformed with recombinant plasmid. A single colony was inoculated into LB medium containing related antibiotic; culture was incubated in 37° C. at 200 rpm and then induced with IPTG. SDS-PAGE was used to monitor the expression. Recombinant BL21 Star™ (DE3) stored in glycerol was inoculated into TB medium containing related antibiotic and cultured at 37° C. When the OD600 reached about 1.2, cell culture was induced with IPTG at 15° C./16 h. Cells were harvested by centrifugation. Cell pellets were resuspended with lysis buffer followed by sonication. The precipitate after centrifugation was dissolved using denaturing agent. Target protein was obtained by one-step purification using Ni column. Target protein was sterilized by 0.22 μm filter before stored in aliquots. The concentration was determined by Bradford protein assay with BSA as standard. The protein purity and molecular weight were determined by standard SDS-PAGE along with Western blot confirmation. […]
# [2] = target: T2, Recombinant SDHB (Mus musculus, UniProt Q9CQA3); test: SDHA cleavage assay, cell free, recombinant SDHB control; assay type: biochemical; conditions: 90 minutes
# T2 construct: purchased LSBio LS-G26026
# T2 sequence (Q9CQA3 31-282): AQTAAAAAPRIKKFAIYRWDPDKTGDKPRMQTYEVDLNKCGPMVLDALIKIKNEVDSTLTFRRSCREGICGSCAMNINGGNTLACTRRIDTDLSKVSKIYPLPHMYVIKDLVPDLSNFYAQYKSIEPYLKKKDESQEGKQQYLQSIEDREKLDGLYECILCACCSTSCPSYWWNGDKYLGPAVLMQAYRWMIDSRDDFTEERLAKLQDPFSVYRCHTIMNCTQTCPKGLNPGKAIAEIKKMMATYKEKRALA
# Description: (§1) SDHA cleavage assay: 75 ug Isolated mitochondria in 25 ul EDB buffer (10 mM HEPES, 50 mM NaCl, 2 mM MgCl2, 5 mM EGTA and 1 mM DTT) were incubated with 75 ng mouse Granzyme B at 37 degrees and then separated by SDS-PAGE^70. Mouse recombinant SDHA protein with His Tag (LS-G26030, LSBio, Seattle, WA) and mouse recombinant SDHB protein with His Tag (LS-G26026, LSBio) in EDB buffer (25 ug in 8.3 ul) were incubated with 25 ng mouse Granzyme B at 37 degrees for 90 minutes. Proteins were then separated by SDS-PAGE and blotted with anti-His Tag antibody (LS-C60077, 1:1000, LSBio) and anti-SDHA (#ab139181, 1:1000, Abcam).
# [3] = target: T3, SDHA (Mus musculus, UniProt Q8K2B3); test: SDHA cleavage assay, cell free, recombinant SDHA; assay type: biochemical; parameters: purchased LSBio LS-G26030; conditions: 90 minutes
# T3 sequence (Q8K2B3 43-664): as the sequence (Q8K2B3 43-664 D241A) above, with A199D counted along it
# Description: as §1
# [4] = target: T3, SDHA; test: SDHA cleavage assay, isolated mitochondria from IECs; assay type: biochemical; parameters: 75 ug Isolated mitochondria in 25 ul EDB buffer; from tissue; host or cells: mitochondria isolated from mouse intestinal epithelial cells; conditions: ex vivo
# Description: as §1
# [5] = test system: primary colonic epithelial cells (PCECs); test: Apoptosis of pre-treated PCECs induced by perforin and Granzyme B; assay type: cell-based, C57BL/6 mice; conditions: pre-treated 2 hours, then perforin and Granzyme B 4 hours
# Description: Cell culture: C57BL/6 primary colonic epithelial cells (PCEC, C57-6047, Cell Biologics, Chicago, IL) were cultured in compete epithelial growth medium supplemented with insulin-transferrin-selenium, epidermal growth factor, glutamine, antibiotics, antimycotics and fecal bovine serum (#M6621, Cell Biologics). Cells were routinely tested for mycoplasma contamination using MycoAlert (#LT07-318, Lonza, Switzerland). Cells were treated with Mouse active perforin (#APB317Mu01, Cloud-Clone Corp., Katy, TX) and recombinant mouse Granzyme B (#140-03, PeproTech, Rocky Hill, NJ) for 4 to 6 hours in indicated concentrations following manufacturer's recommendations. Cells were incubated with GDF-15 (#8944-GD-025, 500 pg/mL, R&D Systems, Minneapolis, MN), Tiron (#172553, 10 mM, Sigma-Aldrich, St. Louis, MO), Trolox (#648471, 0.5 mM, Sigma-Aldrich), 4-Octyl itaconate (#SML2338, 0.1 mM, Sigma-Aldrich) and NAD (#N8285, 1 mM, Sigma-Aldrich).
Molecule,proteolysis of mutated SDHA (Ile-Glu-Asp-Gly to Ile-Glu-Ala-Gly) [1],proteolysis of recombinant SDHB [2],proteolysis of recombinant SDHA [3],proteolysis of SDHA in isolated mitochondria [4],apoptosis of PCECs induced by GranzymeB and perforin [5]
B1,prevented proteolysis,not SDHB,direct proteolysis,caused proteolysis of SDHA,
B2,,,,,did not reduce apoptosis
